We go through 2 proteins from publication PMC5606203.

Common to all, as to assay: initial rates, colorimetric 2-naphthylamide release
Substrate in series [1]: N=C(N)NCCC[C@H](NC(=O)[C@@H](N)CCCNC(=N)N)C(=O)Nc1ccc2ccccc2c1
It counts as biochemical, Physcomitrium patens. As to conditions: 25 °C, pH 7.4, Tris-HCl (I = 0.01), 75 µM CoCl2, DPP III site.

Substrate in series [2]: C[C@H](N)C(=O)N[C@@H](CCCNC(=N)N)C(=O)Nc1ccc2ccccc2c1
It counts as biochemical, Physcomitrium patens. As to conditions: 25 °C, pH 7.4, Tris-HCl (I = 0.01), 75 µM CoCl2, DPP III site.

Substrate in series [3]: N=C(N)NCCC[C@H](NC(=O)[C@@H]1CCCN1)C(=O)Nc1ccc2ccccc2c1
In kind it is biochemical, Arabidopsis thaliana. The note with it: 25 °C, pH 7.9, Tris-HCl (I = 0.01), 75 µM CoCl2, DPP III site.

Substrate in series [4]: N=C(N)NCCC[C@H](NC(=O)[C@@H](N)CCCNC(=N)N)C(=O)Nc1ccc2ccccc2c1
It counts as biochemical, Arabidopsis thaliana. The note with it: 25 °C, pH 7.9, Tris-HCl (I = 0.01), 75 µM CoCl2, DPP III site.

Substrate in series [5]: C[C@H](N)C(=O)N[C@@H](CCCNC(=N)N)C(=O)Nc1ccc2ccccc2c1
In kind it is biochemical, Arabidopsis thaliana. The note with it: 25 °C, pH 7.9, Tris-HCl (I = 0.01), 75 µM CoCl2, DPP III site.

Usually Km stands for the substrate concentration at which the rate is half of its maximum. For orientation: kcat means the maximal rate divided by the concentration of active sites. By kcat/Km is commonly meant the second-order rate constant that governs catalysis at low substrate concentration.

B1: PpND (Physcomitrium patens) (protein)
chain: MEGFQEEFSLGECLDVLTAAGLRTGDVKKRHLVHADGDYHRAVHVWLFVESTQELVLQKRADCKDSWPGLWDISSAGHISAGDTSLLTARRELQEELGITLPADAFEFLFDYLQECVINGGKYINNEYNDVYLVTLVDHIPVEAFTLQETEVSAVKYMKWQDYEDAVRKEDSSYVPCDVDGGYSALFSALRRRYEVDTSAKLEELQMHINRYVPVEIHGETTGLSKGDLLALSDTIRAAKLLDRIFLEQEWATNPALKDSLQAASGKSELDRLKFAYYLINKSPWSILDENDAFLTTADSAIQIAEGAVDESVTWGGKVRYRAAFPVEKAPGANFYPVDMDKEEFQAWKDGLDKGQQADATSFFTTIRRSGDIHDADGAKVHDLKIVPYSKEYATILKEASYLLHKAGDSAENPSLKRLLKAKADAFLSNDYYESDIAWMELDSPLDVTIGPYETYEDGLFGYKATFEAFIGIRDDEATQRLKLFSHNLQEMEDNLPMDDEYKSKTVTFSPIRVIQLLYNSGDVKGPQTVAFNLPNDDRIVKERGTAMVMLKNISQAKFDYILLPIANVCVEASQRGAVDFDSFFTHTICHECCHGIGPHNIVTPDGRASTVRLELQEVYSAIEEAKADIVGLWALHFLVDKGLLPRSLENTMYVSFLAGCFRSIRFGLEEAHGKGQALQFNFILEKGGFSYHPDGTFSVDYTKVRQCVEDLSRLILTIEAKGDKAGAEALLAKYAALTPQLQQSFDALQDVQVPVDIFPTFKLLDDIKL
For the protein B1, in series [1], the Km is reported as 10.63 ± 1.72 µM and the kcat turned out to be 0.0137 ± 0.003 s⁻¹. In series [2], the Km is recorded as 17.21 ± 0.75 µM and the kcat stood at 0.0106 ± 0.00262 s⁻¹.

B2: AtND (Arabidopsis thaliana) (protein)
chain: MAEEHFDVLTKSGEKTGVSKPRGEVHRDGDYHRAVHVWIFVETTQQLLLQLRSDDKDSWPGQWDISSAGHISAGDTSLLSAQRELEEELGVKLPKDAFEKIFVFLQECVTNDGKFINNEFNDVYLVTILHPIPLEAFTLQKEEVSAVKYVPYEEYRNFLSKEDPAYVPYDVNGEYGKLFDIIRQRCQVNTEARSLSLQKQLQRYSPVTLEAKLTELSEADQKALGLIVKAAKIMDDIFYEQVWNSNPALRDWLKDHANASKLDKLKWDYFTINKSPWSSLDENEAFLSTADSAVKLLPGATKAIAGWKGLEYRAAFPVTKPPGANFYPPDMDKMEFTLWLNGLTEEQKHAATGFFSVIKRRSEANLDASDHLASSTKKLPDSNSDLYSIPYSEIYRPFLKKASEFLQKAGDLVSSPSLKKLLHSKAEAFLSNEYYESDIAWMDLDSKLDITIGPYETYEDEIFGYKATFETFIGIRDDKATADLKLFGDNLKLLEDNLPLESVYKSTDVSAAPIRVIQLIYNSGDVKGPQTVAYNLPNDEKIVKDRGTSMVMLKNVQEAKFEHILKPIAEITISKEQRGLVDFDSFFTHTICHECCHGIGPHTITLPGGQTSTVRKELQEVHSAMEEAKADIVGLWALKFLITKGLLSKSMVESMYVSFLAGCFRSIRFGLTEAHGKGQALQFNYLYEKGAFVFHEDSTFSVDFAKIEGAVESLSHEILTIQGKGDKNAATLLLNKYCTITGPLKTALENLERVKVPVDISPTFPLAEALMN
On to B2, for which, in series [3], the Km worked out at 40.85 ± 12.09 µM, the kcat is 0.0372 ± 0.005 s⁻¹ and the kcat/Km was 908 M⁻¹ s⁻¹. Besides, in series [4], the Km came to 3.25 ± 1.12 µM, the kcat was determined as 0.002 ± 1.67e-05 s⁻¹ and the kcat/Km is 615 M⁻¹ s⁻¹. In addition, in series [5], the Km worked out at 5.0 ± 0.3 µM, the kcat is 0.0415 ± 0.0035 s⁻¹ and the kcat/Km was found to be 8300 M⁻¹ s⁻¹.
